Test results from PMC2913408 (Biochemistry, 2010).

Key:
purified protein [1] = substrate: O=C(O)/C(O)=C/c1ccccc1; assay: purified protein; settings: 10 mM potassium phosphate, pH 7.3, 24 °C
purified protein [2] = substrate: O=C(O)/C=C/C=C(\O)C(=O)O; assay: purified protein; assay type: biochemical, Chloroflexus aurantiacus; settings: 10 mM potassium phosphate, pH 7.3, 24 °C

B1: hh4-OT (heterohexamer 4-oxalocrotonate tautomerase) (Chloroflexus aurantiacus J-10-fl) (protein)
chain 1: MLLLRITMLEGRSTEQKAELARALSAAAAAAFDVPLAEVRLIIQEVPPTHWTVGGISMAELRQQASTSTQGQ
chain 2: PMLEVFYSGDRPPDRTRKQAFAAEASAIFQRVIGTPPGRLQLIIQIVSPENTLAVIDLDRPDSDTTAEPDQQ
**Q.** For B1, which Km (purified protein [1]) is on record?
**A.** Its Km is 121 ± 20 µM.

**Q.** And the kcat (purified protein [1])?
**A.** The kcat was 13 s⁻¹.

**Q.** What about the kcat/Km (purified protein [1]) of the same protein?
**A.** Its kcat/Km is 110000 M⁻¹ s⁻¹.

**Q.** And the Km (purified protein [2])?
**A.** The Km was 70 ± 8 µM.

**Q.** What about the kcat (purified protein [2]) of the same protein?
**A.** Its kcat is 3000 ± 100 s⁻¹.

**Q.** And the kcat/Km (purified protein [2])?
**A.** Its kcat/Km is 4.3e+07 M⁻¹ s⁻¹.
